Laboratory results taken from the supplement of paper PMC5998384.

How the values were obtained:
HeLa Kyoto [1] = assay: melting temperature (median over replicates), in situ; higher = more thermally stable
HeLa Kyoto [2] = assay: thermal stability score vs G1/S (z-score of summed log2 fold changes over temperatures); higher = more thermally stable than in G1/S
HeLa Kyoto [3] = assay: solubility change mitosis vs G1/S (difference of NP-40 vs SDS log2 ratios) (log2 ratio difference); higher = more soluble in mitosis
HeLa Kyoto [4] = assay: solubility in G1/S (NP-40 vs SDS abundance) (log2 ratio); higher = more soluble; conditions: cell cycle stage: G1/S
[5] = cell cycle stage: early G1 (4.5 h after nocodazole release)
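Throughout, for melting temperature (median over replicates), in situ: HeLa Kyoto cells synchronized by double thymidine or nocodazole block, proteins quantified by TMT10plex mass spectrometry, three independent biological replicates.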
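Throughout, for solubility change mitosis vs G1/S (difference of NP-40 vs SDS log2 ratios): synchronized HeLa Kyoto cells (double thymidine block for G1/S, nocodazole release for mitosis), protein amounts in NP-40 versus SDS lysates quantified by mass spectrometry, three biological replicates.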
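Throughout, for solubility in G1/S (NP-40 vs SDS abundance): HeLa Kyoto cells arrested at G1/S by double thymidine block, proteins quantified by TMT10plex mass spectrometry in mild NP-40 versus SDS extracts, three biological replicates.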
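Throughout, for thermal stability score vs G1/S (z-score of summed log2 fold changes over temperatures): synchronized HeLa Kyoto cells, proteins quantified by TMT10plex mass spectrometry, three biological replicates, mitosis taken 0.5 h after nocodazole release, G1/S directly after double thymidine block.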

Sequence of NPTN (chain, as listed by the source): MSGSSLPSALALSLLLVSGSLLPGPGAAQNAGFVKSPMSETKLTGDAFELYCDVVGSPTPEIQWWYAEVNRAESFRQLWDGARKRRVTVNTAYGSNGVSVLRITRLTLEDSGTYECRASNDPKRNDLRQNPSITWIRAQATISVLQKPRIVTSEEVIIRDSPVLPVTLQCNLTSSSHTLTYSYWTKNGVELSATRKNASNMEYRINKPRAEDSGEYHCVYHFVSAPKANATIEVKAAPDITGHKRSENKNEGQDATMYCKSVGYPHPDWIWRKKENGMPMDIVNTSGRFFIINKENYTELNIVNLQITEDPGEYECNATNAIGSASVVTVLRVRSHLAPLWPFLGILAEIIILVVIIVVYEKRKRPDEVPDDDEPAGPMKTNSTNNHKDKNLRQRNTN

Substance | melting temperature (HeLa Kyoto [1]; cell cycle stage: G1/S) | melting temperature (HeLa Kyoto [1]; cell cycle stage: mitosis) | thermal stability score (HeLa Kyoto [2]; [5]) | thermal stability score (HeLa Kyoto [2]; cell cycle stage: mitosis) | solubility change mitosis (log2) (HeLa Kyoto [3]) | solubility in G1/S (log2) (HeLa Kyoto [4])
MDAGFFRGTSAEQDNRFSNKQKKLLKQLKFAECLEKKVDMSKVNLEVIKPWITKRVTEILGFEDDVVIEFIFNQLEVKNPDSKMMQINLTGFLNGKNAREFMGELWPLLLSAQENIAGIPSAFLELKKEEIKQRQIEQEKLASMKKQDEDKDKRDKEEKESSREKRERSRSPRRRKSRSPSPRRRSSPVRRERKRSHSRSPRHRTKSRSPSPAPEKKEKTPELPEPSVKVKEPSVQEATSTSDILKVPKPEPIPEPKEPSPEKNSKKEKEKEKTRPRSRSRSKSRSRTRSRSPSHTRPRRRHRSRSRSYSPRRRPSPRRRPSPRRRTPPRRMPPPPRHRRSRSPVRRRRRSSASLSGSSSSSSSSRSRSPPKKPPKRTSSPPRKTRRLSPSASPPRRRHRPSPPATPPPKTRHSPTPQQSNRTRKSRVSVSPGRTSGKVTKHKGTEKRESPSPAPKPRKVELSESEEDKGGKMAAADSVQQRRQYRRQNQQSSSDSGSSSSSEDERPKRSHVKNGEVGRRRRHSPSRSASPSPRKRQKETSPRGRRRRSPSPPPTRRRRSPSPAPPPRRRRTPTPPPRRRTPSPPPRRRSPSPRRYSPPIQRRYSPSPPPKRRTASPPPPPKRRASPSPPPKRRVSHSPPPKQRSSPVTKRRSPSLSSKHRKGSSPSRSTREARSPQPNKRHSPSPRPRAPQTSSSPPPVRRGASSSPQRRQSPSPSTRPIRRVSRTPEPKKIKKAASPSPQSVRRVSSSRSVSGSPEPAAKKPPAPPSPVQSQSPSTNWSPAVPVKKAKSPTPSPSPPRNSDQEGGGKKKKKKKDKKHKKDKKHKKHKKHKKEKAVAAAAAAAVTPAAIAAATTTLAQEEPVAAPEPKKETESEAEDNLDDLEKHLREKALRSMRKAQVSPQS [SRRM1] | 51.3 °C | 50 °C | -6.13 | -6.36 | 1.02 | -1.06
MAVVIRLQGLPIVAGTMDIRHFFSGLTIPDGGVHIVGGELGEAFIVFATDEDARLGMMRTGGTIKGSKVTLLLSSKTEMQNMIELSRRRFETANLDIPPANASRSGPPPSSGMSSRVNLPTTVSNFNNPSPSVVTATTSVHESNKNIQTFSTASVGTAPPNMGASFGSPTFSSTVPSTASPMNTVPPPPIPPIPAMPSLPPMPSIPPIPVPPPVPTLPPVPPVPPIPPVPSVPPMTPLPPMSGMPPLNPPPVAPLPAGMNGSGAPMNLNNNLNPMFLGPLNPVNPIQMNSQSSVKPLPINPDDLYVSVHGMPFSAMENDVRDFFHGLRVDAVHLLKDHVGRNNGNGLVKFLSPQDTFEALKRNRMLMIQRYVEVSPATERQWVAAGGHITFKQNMGPSGQTHPPPQTLPRSKSPSGQKRSRSRSPHEAGFCVYLKGLPFEAENKHVIDFFKKLDIVEDSIYIAYGPNGKATGEGFVEFRNEADYKAALCRHKQYMGNRFIQVHPITKKGMLEKIDMIRKRLQNFSYDQREMILNPEGDVNSAKVCAHITNIPFSITKMDVLQFLEGIPVDENAVHVLVDNNGQGLGQALVQFKNEDDARKSERLHRKKLNGREAFVHVVTLEDMREIEKNPPAQGKKGLKMPVPGNPAVPGMPNAGLPGVGLPSAGLPGAGLPSTGLPGSAITSAGLPGAGMPSAGIPSAGGEEHAFLTVGSKEANNGPPFNFPGNFGGSNAFGPPIPPPGLGGGAFGDARPGMPSVGNSGLPGLGLDVPGFGGGPNNLSGPSGFGGGPQNFGNGPGSLGGPPGFGSGPPGLGSAPGHLGGPPAFGPGPGPGPGPGPIHIGGPPGFASSSGKPGPTVIKVQNMPFTVSIDEILDFFYGYQVIPGSVCLKYNEKGMPTGEAMVAFESRDEATAAVIDLNDRPIGSRKVKLVLG [RBM12] | 48.7 °C | 49.2 °C | 1.03 | 4.25 | -0.147 | 0.344
MATAPSYPAGLPGSPGPGSPPPPGGLELQSPPPLLPQIPAPGSGVSFHIQIGLTREFVLLPAASELAHVKQLACSIVDQKFPECGFYGLYDKILLFKHDPTSANLLQLVRSSGDIQEGDLVEVVLSASATFEDFQIRPHALTVHSYRAPAFCDHCGEMLFGLVRQGLKCDGCGLNYHKRCAFSIPNNCSGARKRRLSSTSLASGHSVRLGTSESLPCTAEELSRSTTELLPRRPPSSSSSSSASSYTGRPIELDKMLLSKVKVPHTFLIHSYTRPTVCQACKKLLKGLFRQGLQCKDCKFNCHKRCATRVPNDCLGEALINGDVPMEEATDFSEADKSALMDESEDSGVIPGSHSENALHASEEEEGEGGKAQSSLGYIPLMRVVQSVRHTTRKSSTTLREGWVVHYSNKDTLRKRHYWRLDCKCITLFQNNTTNRYYKEIPLSEILTVESAQNFSLVPPGTNPHCFEIVTANATYFVGEMPGGTPGGPSGQGAEAARGWETAIRQALMPVILQDAPSAPGHAPHRQASLSISVSNSQIQENVDIATVYQIFPDEVLGSGQFGVVYGGKHRKTGRDVAVKVIDKLRFPTKQESQLRNEVAILQSLRHPGIVNLECMFETPEKVFVVMEKLHGDMLEMILSSEKGRLPERLTKFLITQILVALRHLHFKNIVHCDLKPENVLLASADPFPQVKLCDFGFARIIGEKSFRRSVVGTPAYLAPEVLLNQGYNRSLDMWSVGVIMYVSLSGTFPFNEDEDINDQIQNAAFMYPASPWSHISAGAIDLINNLLQVKMRKRYSVDKSLSHPWLQEYQTWLDLRELEGKMGERYITHESDDARWEQFAAEHPLPGSGLPTDRDLGGACPPQDHDMQGLAERISVL [PRKD2] |  |  | 0.521 | 0.296 | -0.188 | -0.115
MSQGILSPPAGLLSDDDVVVSPMFESTAADLGSVVRKNLLSDCSVVSTSLEDKQQVPSEDSMEKVKVYLRVRPLLPSELERQEDQGCVRIENVETLVLQAPKDSFALKSNERGIGQATHRFTFSQIFGPEVGQASFFNLTVKEMVKDVLKGQNWLIYTYGVTNSGKTHTIQGTIKDGGILPRSLALIFNSLQGQLHPTPDLKPLLSNEVIWLDSKQIRQEEMKKLSLLNGGLQEEELSTSLKRSVYIESRIGTSTSFDSGIAGLSSISQCTSSSQLDETSHRWAQPDTAPLPVPANIRFSIWISFFEIYNELLYDLLEPPSQQRKRQTLRLCEDQNGNPYVKDLNWIHVQDAEEAWKLLKVGRKNQSFASTHLNQNSSRSHSIFSIRILHLQGEGDIVPKISELSLCDLAGSERCKDQKSGERLKEAGNINTSLHTLGRCIAALRQNQQNRSKQNLVPFRDSKLTRVFQGFFTGRGRSCMIVNVNPCASTYDETLHVAKFSAIASQLVHAPPMQLGFPSLHSFIKEHSLQVSPSLEKGAKADTGLDDDIENEADISMYGKEELLQVVEAMKTLLLKERQEKLQLEMHLRDEICNEMVEQMQQREQWCSEHLDTQKELLEEMYEEKLNILKESLTSFYQEEIQERDEKIEELEALLQEARQQSVAHQQSGSELALRRSQRLAASASTQQLQEVKAKLQQCKAELNSTTEELHKYQKMLEPPPSAKPFTIDVDKKLEEGQKNIRLLRTELQKLGESLQSAERACCHSTGAGKLRQALTTCDDILIKQDQTLAELQNNMVLVKLDLRKKAACIAEQYHTVLKLQGQVSAKKRLGTNQENQQPNQQPPGKKPFLRNLLPRTPTCQSSTDCSPYARILRSRRSPLLKSGPFGKKY [KIF20A] |  |  | 0.449 | 3.61 | -0.0791 | -0.582
MPSEGRCWETLKALRSSDKGRLCYYRDWLLRREDVLEECMSLPKLSSYSGWVVEHVLPHMQENQPLSETSPSSTSASALDQPSFVPKSPDASSAFSPASPATPNGTKGKDESQHTESMVLQSSRGIKVEGCVRMYELVHRMKGTEGLRLWQEEQERKVQALSEMASEQLKRFDEWKELKQHKEFQDLREVMEKSSREALGHQEKLKAEHRHRAKILNLKLREAEQQRVKQAEQERLRKEEGQIRLRALYALQEEMLQLSQQLDASEQHKALLKVDLAAFQTRGNQLCSLISGIIRASSESSYPTAESQAEAERALREMRDLLMNLGQEITRACEDKRRQDEEEAQVKLQEAQMQQGPEAHKEPPAPSQGPGGKQNEDLQVKVQDITMQWYQQLQDASMQCVLTFEGLTNSKDSQAKKIKMDLQKAATIPVSQISTIAGSKLKEIFDKIHSLLSGKPVQSGGRSVSVTLNPQGLDFVQYKLAEKFVKQGEEEVASHHEAAFPIAVVASGIWELHPRVGDLILAHLHKKCPYSVPFYPTFKEGMALEDYQRMLGYQVKDSKVEQQDNFLKRMSGMIRLYAAIIQLRWPYGNRQEIHPHGLNHGWRWLAQILNMEPLSDVTATLLFDFLEVCGNALMKQYQVQFWKMLILIKEDYFPRIEAITSSGQMGSFIRLKQFLEKCLQHKDIPVPKGFLTSSFWRS [GLE1] |  |  | 0.568 | 0.433 | 0.773 | -0.966
MAAVELEWIPETLYNTAISAVVDNYIRSRRDIRSLPENIQFDVYYKLYQQGRLCQLGSEFCELEVFAKVLRALDKRHLLHHCFQALMDHGVKVASVLAYSFSRRCSYIAESDAAVKEKAIQVGFVLGGFLSDAGWYSDAEKVFLSCLQLCTLHDEMLHWFRAVECCVRLLHVRNGNCKYHLGEETFKLAQTYMDKLSKHGQQANKAALYGELCALLFAKSHYDEAYKWCIEAMKEITAGLPVKVVVDVLRQASKACVVKREFKKAEQLIKHAVYLARDHFGSKHPKYSDTLLDYGFYLLNVDNICQSVAIYQAALDIRQSVFGGKNIHVATAHEDLAYSSYVHQYSSGKFDNALFHAERAIGIITHILPEDHLLLASSKRVKALILEEIAIDCHNKETEQRLLQEAHDLHLSSLQLAKKAFGEFNVQTAKHYGNLGRLYQSMRKFKEAEEMHIKAIQIKEQLLGQEDYEVALSVGHLASLYNYDMNQYENAEKLYLRSIAIGKKLFGEGYSGLEYDYRGLIKLYNSIGNYEKVFEYHNVLSNWNRLRDRQYSVTDALEDVSTSPQSTEEVVQSFLISQNVEGPSC [APPBP2] |  |  | -0.105 | -0.0209 | -0.168 | -0.17
NPTN |  |  | -1.2 | -2.14 | 0.245 | 0.36
VKORC1 |  |  | -0.761 | -1.55 | 0.136 | -0.134
MQRAAALVRRGCGPRTPSSWGRSQSSAAAEASAVLKVRPERSRRERILTLESMNPQVKAVEYAVRGPIVLKAGEIELELQRGIKKPFTEVIRANIGDAQAMGQQPITFLRQVMALCTYPNLLDSPSFPEDAKKRARRILQACGGNSLGSYSASQGVNCIREDVAAYITRRDGGVPADPDNIYLTTGASDGISTILKILVSGGGKSRTGVMIPIPQYPLYSAVISELDAIQVNYYLDEENCWALNVNELRRAVQEAKDHCDPKVLCIINPGNPTGQVQSRKCIEDVIHFAWEEKLFLLADEVYQDNVYSPDCRFHSFKKVLYEMGPEYSSNVELASFHSTSKGYMGECGYRGGYMEVINLHPEIKGQLVKLLSVRLCPPVSGQAAMDIVVNPPVAGEESFEQFSREKESVLGNLAKKAKLTEDLFNQVPGIHCNPLQGAMYAFPRIFIPAKAVEAAQAHQMAPDMFYCMKLLEETGICVVPGSGFGQREGTYHFRMTILPPVEKLKTVLQKVKDFHINFLEKYA [GPT2] |  |  | -0.2 | -0.215 | 0.017 | 0.0799
MAATAVAAAVAGTESAQGPPGPAASLELWLNKATDPSMSEQDWSAIQNFCEQVNTDPNGPTHAPWLLAHKIQSPQEKEALYALTVLEMCMNHCGEKFHSEVAKFRFLNELIKVLSPKYLGSWATGKVKGRVIEILFSWTVWFPEDIKIRDAYQMLKKQGIIKQDPKLPVDKILPPPSPWPKSSIFDADEEKSKLLTRLLKSNHPEDLQAANRLIKNLVKEEQEKSEKVSKRVSAVEEVRSHVKVLQEMLSMYRRPGQAPPDQEALQVVYERCEKLRPTLFRLASDTTDDDDALAEILQANDLLTQGVLLYKQVMEGRVTFGNRVTSSLGDIPVSRVFQNPAGCMKTCPLIDLEVDNGPAQMGTVVPSLLHQDLAALGISDAPVTGMVSGQNCCEEKRNPSSSTLPGGGVQNPSADRNLLDLLSAQPAPCPLNYVSQKSVPKEVPPGTKSSPGWSWEAGPLAPSPSSQNTPLAQVFVPLESVKPSSLPPLIVYDRNGFRILLHFSQTGAPGHPEVQVLLLTMMSTAPQPVWDIMFQVAVPKSMRVKLQPASSSKLPAFSPLMPPAVISQMLLLDNPHKEPIRLRYKLTFNQGGQPFSEVGEVKDFPDLAVLGAA [GGA2] |  |  | 0.693 | 1.05 | -0.32 | 0.448
UBR3 |  |  | -0.103 | -0.24 | -0.171 | -0.174
